What all share (assay): cell-based or functional assay
The target in experiment [1] is T1, human c-Met (human, UniProt P08581 25-1390).
Experiment [2] addresses T1, human c-Met. The source holds these as a separate data set.
The target of experiment [3] is T1, human c-Met. This is another data set of the same source.
The target in experiment [4] is T1, human c-Met. This is another data set of the same source.
Experiment [5] has as its target T1, human c-Met. The source holds these as a separate data set.

Consider one molecule from patent US20100129369A1 (Eli Lilly, published 2010).

T1 sequence (P08581 25-1390): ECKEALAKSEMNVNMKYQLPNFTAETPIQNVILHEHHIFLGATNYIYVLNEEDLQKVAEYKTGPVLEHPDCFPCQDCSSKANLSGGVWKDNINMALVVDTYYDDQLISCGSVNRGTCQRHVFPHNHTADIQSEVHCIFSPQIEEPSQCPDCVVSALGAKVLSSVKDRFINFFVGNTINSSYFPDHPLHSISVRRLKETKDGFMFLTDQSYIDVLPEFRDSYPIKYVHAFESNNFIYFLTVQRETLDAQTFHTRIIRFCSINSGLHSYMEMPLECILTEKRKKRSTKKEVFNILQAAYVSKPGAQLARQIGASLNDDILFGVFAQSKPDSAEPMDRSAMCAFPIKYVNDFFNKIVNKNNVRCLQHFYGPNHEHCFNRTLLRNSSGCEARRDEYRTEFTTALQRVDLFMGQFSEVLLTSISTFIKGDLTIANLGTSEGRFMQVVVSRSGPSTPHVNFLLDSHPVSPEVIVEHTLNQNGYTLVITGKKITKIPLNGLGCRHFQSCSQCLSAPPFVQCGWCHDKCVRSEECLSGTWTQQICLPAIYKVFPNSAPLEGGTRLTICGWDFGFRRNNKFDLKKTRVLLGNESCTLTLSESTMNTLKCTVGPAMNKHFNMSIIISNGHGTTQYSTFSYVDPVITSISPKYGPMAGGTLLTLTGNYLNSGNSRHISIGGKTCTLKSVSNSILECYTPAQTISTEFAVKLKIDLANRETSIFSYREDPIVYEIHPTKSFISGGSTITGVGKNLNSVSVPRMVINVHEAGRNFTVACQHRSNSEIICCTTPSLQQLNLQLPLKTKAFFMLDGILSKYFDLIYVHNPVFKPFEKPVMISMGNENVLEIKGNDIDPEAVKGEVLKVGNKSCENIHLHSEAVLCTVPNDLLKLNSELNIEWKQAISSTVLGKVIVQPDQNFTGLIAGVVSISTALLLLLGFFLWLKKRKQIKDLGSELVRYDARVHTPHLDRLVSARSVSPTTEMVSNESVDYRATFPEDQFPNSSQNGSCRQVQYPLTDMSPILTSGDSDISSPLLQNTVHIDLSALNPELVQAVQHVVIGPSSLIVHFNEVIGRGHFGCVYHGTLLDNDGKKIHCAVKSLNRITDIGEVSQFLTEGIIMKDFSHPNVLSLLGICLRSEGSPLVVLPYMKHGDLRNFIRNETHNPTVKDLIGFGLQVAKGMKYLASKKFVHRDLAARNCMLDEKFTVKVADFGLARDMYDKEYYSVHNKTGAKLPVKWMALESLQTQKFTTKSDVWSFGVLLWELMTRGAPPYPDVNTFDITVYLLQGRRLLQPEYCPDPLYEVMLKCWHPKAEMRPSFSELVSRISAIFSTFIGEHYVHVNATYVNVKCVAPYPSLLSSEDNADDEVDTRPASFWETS

B1: C8-6 (antibody, human IgG2, kappa, V domains shown)
VH: QVQLVQSGAEVKKPGASVKVSCKASGYTFTDYYMHWVRQAPGQGLEWMGRVNPNRGGTTYNQKFEGRVTMTTDTSTSTAYMELRSLRSDDTAVYYCARTNWLDYWGQGTTVTVSS
VL: DIQMTQSPSSLSASVGDRVTITCSVSSSVSSIYLHWYQQKPGKAPKLLIYSTSNLASGVPSRFSGSGSGTDFTLTISSLQPEDFATYYCIQYSGYPLTFGGGTKVEIKR
Take B1: in experiment [1], the “Staurosporine-Induced Apoptosis in Caki-1 Cells, Average A450 nm, antibody dose 3 ng/mL” value stood at 1.09 A450 nm; the “Staurosporine-Induced Apoptosis in Caki-1 Cells, Average A450 nm, antibody dose 30 ng/mL” value was determined as 1.02 A450 nm; the “Staurosporine-Induced Apoptosis in Caki-1 Cells, Average A450 nm, antibody dose 300 ng/mL” value came out at 0.97 A450 nm; the “Staurosporine-Induced Apoptosis in Caki-1 Cells, Average A450 nm, antibody dose 3000 ng/mL” value stood at 0.92 A450 nm. For the same molecule, the “Staurosporine-Induced Apoptosis in Caki-1 Cells, Average A450 nm, antibody dose 30000 ng/mL” value in experiment [1] came to 0.96 A450 nm. Besides, in experiment [2], the “3H-Thymidine Incorporation in Caki-1 Cells in the Absence of HGF (AVG CPM), antibody dose 0.1 ng/mL” value was found to be 16100 CPM; the “3H-Thymidine Incorporation in Caki-1 Cells in the Absence of HGF (AVG CPM), antibody dose 0.4 ng/mL” value turned out to be 14600 CPM; the “3H-Thymidine Incorporation in Caki-1 Cells in the Absence of HGF (AVG CPM), antibody dose 2.6 ng/mL” value was found to be 14100 CPM; the “3H-Thymidine Incorporation in Caki-1 Cells in the Absence of HGF (AVG CPM), antibody dose 15.4 ng/mL” value turned out to be 13700 CPM. In experiment [2], the “3H-Thymidine Incorporation in Caki-1 Cells in the Absence of HGF (AVG CPM), antibody dose 92.6 ng/mL” value was 12800 CPM; the “3H-Thymidine Incorporation in Caki-1 Cells in the Absence of HGF (AVG CPM), antibody dose 555.6 ng/mL” value came to 13500 CPM; the “3H-Thymidine Incorporation in Caki-1 Cells in the Absence of HGF (AVG CPM), antibody dose 3333.3 ng/mL” value worked out at 13200 CPM; the “3H-Thymidine Incorporation in Caki-1 Cells in the Absence of HGF (AVG CPM), antibody dose 20000.0 ng/mL” value came to 13200 CPM. Further, the “Tubular Morphogenesis Agonist activity (fold stimulation) in HepG2 cells, antibody 50 ug/ml” value in experiment [3] is 1.2 fold stimulation. In addition, in experiment [4], the “3H-Thymidine Incorporation in Primary Human Hepatocytes in the Absence of HGF (average), dose 0.0032 ug/mL” value was determined as 736; the “3H-Thymidine Incorporation in Primary Human Hepatocytes in the Absence of HGF (average), dose 0.016 ug/mL” value was found to be 770; the “3H-Thymidine Incorporation in Primary Human Hepatocytes in the Absence of HGF (average), dose 0.08 ug/mL” value is 792; the “3H-Thymidine Incorporation in Primary Human Hepatocytes in the Absence of HGF (average), dose 0.4 ug/mL” value was determined as 802. In experiment [4], the “3H-Thymidine Incorporation in Primary Human Hepatocytes in the Absence of HGF (average), dose 2 ug/mL” value was 892 and the “3H-Thymidine Incorporation in Primary Human Hepatocytes in the Absence of HGF (average), dose 10 ug/mL” value stood at 1040. Moreover, the “Percent of DU145 Cells in Colonies (scatter assay), antibody 20 ug/mL” value in experiment [5] is 23.3%.
